From patent publication US20150344570A1 (published 2015)
Read-outs that look alike come from different tables or passages of the source.

T1: FcγRIIb extracellular domain with C-terminal His tag (human, UniProt P31994 43-217)
T1 construct: extracellular domain; Soluble receptor used as analyte in Biacore; also called FcgRIIb
T1 sequence (looked up): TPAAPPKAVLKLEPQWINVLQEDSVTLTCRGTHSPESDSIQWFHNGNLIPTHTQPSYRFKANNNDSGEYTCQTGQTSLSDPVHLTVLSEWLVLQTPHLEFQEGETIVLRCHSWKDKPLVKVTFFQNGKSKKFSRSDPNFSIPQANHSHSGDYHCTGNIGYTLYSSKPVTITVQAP


Experiments:
[1] = biological target: T1, FcγRIIb extracellular domain with …; test: SPR (Biacore), antibody captured, FcγR as analyte; binding relative to GpH7-A5/GpH7-B3/GpL16-k0 = 100
[2] = biological target: T2, FcγRIa extracellular domain with C-terminal His tag (human, UniProt P12314 16-292); test: as above
T2 construct: extracellular domain; Soluble receptor used as analyte in Biacore; also called FcgRI

[3] = biological target: T1, FcγRIIb extracellular domain with …; test: as above; remark: listed apart in the source
[4] = biological target: T2, FcγRIa extracellular domain with …; test: as above; remark: listed apart in the source
[5] = biological target: T2, FcγRIa extracellular domain with …; test: ratio He/Con_1a : He/Con_2b (FcγRIa over FcγRIIb), SPR (Biacore)

T2 sequence (P12314 16-292): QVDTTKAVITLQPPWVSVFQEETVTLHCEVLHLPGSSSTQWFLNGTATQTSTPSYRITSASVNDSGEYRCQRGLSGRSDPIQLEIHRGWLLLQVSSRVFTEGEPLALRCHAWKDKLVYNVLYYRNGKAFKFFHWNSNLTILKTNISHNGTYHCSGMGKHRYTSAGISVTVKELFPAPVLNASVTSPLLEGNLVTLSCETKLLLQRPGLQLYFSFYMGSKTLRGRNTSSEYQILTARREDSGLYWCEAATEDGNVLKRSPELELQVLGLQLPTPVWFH

Row | Binder | He/Con_2b [1] [control = 100] | He/Con_1a [2] [control = 100] | He/Con_2b [3] [control = 100] | He/Con_1a [4] [control = 100] | He_1a/2b (Ia/IIb) [5]
1 | GpH7-A5/GpH7-B3 variant I332_02A/GpL16-k0 (antibody, human IgG1, kappa, Heterodimerized IgG1, mutation in the GpH7-B3 chain only; also called He Ab) heavy 1: not shown heavy 2: not shown light: DIVMTQSPLSLPVTPGEPASISCQASESLVHSNRNTYLHWYLQKPGQSPQLLIYKVSNRFSGVPDRFSGSGSGTDFTLKISRVEAEDVGVYYCSQNTHVPPTFGQGTKVEIERTVAAPSVFIFPPSDEQLKSGTASVVCLLNNFYPREAKVQWKVDNALQSGNSQESVTEQDSKDSTYSLSSTLTLSKADYEKHKVYACEVTHQGLSSPVTKSFNRGEC | 103 | 88.3 |  |  | 
2 | GpH7-A5/GpH7-B3 variant P331_20W/GpL16-k0 (antibody, human IgG1, kappa, Heterodimerized IgG1, mutation in the GpH7-B3 chain only; also called He Ab) heavy 1: not shown heavy 2: not shown light: DIVMTQSPLSLPVTPGEPASISCQASESLVHSNRNTYLHWYLQKPGQSPQLLIYKVSNRFSGVPDRFSGSGSGTDFTLKISRVEAEDVGVYYCSQNTHVPPTFGQGTKVEIERTVAAPSVFIFPPSDEQLKSGTASVVCLLNNFYPREAKVQWKVDNALQSGNSQESVTEQDSKDSTYSLSSTLTLSKADYEKHKVYACEVTHQGLSSPVTKSFNRGEC | 111 | 94.5 |  |  | 
3 | GpH7-A5/GpH7-B3 variant I332_04F/GpL16-k0 (antibody, human IgG1, kappa, Heterodimerized IgG1, mutation in the GpH7-B3 chain only; also called He Ab) heavy 1: not shown heavy 2: not shown light: DIVMTQSPLSLPVTPGEPASISCQASESLVHSNRNTYLHWYLQKPGQSPQLLIYKVSNRFSGVPDRFSGSGSGTDFTLKISRVEAEDVGVYYCSQNTHVPPTFGQGTKVEIERTVAAPSVFIFPPSDEQLKSGTASVVCLLNNFYPREAKVQWKVDNALQSGNSQESVTEQDSKDSTYSLSSTLTLSKADYEKHKVYACEVTHQGLSSPVTKSFNRGEC | 104 | 93.6 |  |  | 
4 | GpH7-A5/GpH7-B3 variant I332_06M/GpL16-k0 (antibody, human IgG1, kappa, Heterodimerized IgG1, mutation in the GpH7-B3 chain only; also called He Ab) heavy 1: not shown heavy 2: not shown light: DIVMTQSPLSLPVTPGEPASISCQASESLVHSNRNTYLHWYLQKPGQSPQLLIYKVSNRFSGVPDRFSGSGSGTDFTLKISRVEAEDVGVYYCSQNTHVPPTFGQGTKVEIERTVAAPSVFIFPPSDEQLKSGTASVVCLLNNFYPREAKVQWKVDNALQSGNSQESVTEQDSKDSTYSLSSTLTLSKADYEKHKVYACEVTHQGLSSPVTKSFNRGEC | 105 | 92.3 |  |  | 
5 | GpH7-A5/GpH7-B3 variant I332_15Y/GpL16-k0 (antibody, human IgG1, kappa, Heterodimerized IgG1, mutation in the GpH7-B3 chain only; also called He Ab) heavy 1: not shown heavy 2: not shown light: DIVMTQSPLSLPVTPGEPASISCQASESLVHSNRNTYLHWYLQKPGQSPQLLIYKVSNRFSGVPDRFSGSGSGTDFTLKISRVEAEDVGVYYCSQNTHVPPTFGQGTKVEIERTVAAPSVFIFPPSDEQLKSGTASVVCLLNNFYPREAKVQWKVDNALQSGNSQESVTEQDSKDSTYSLSSTLTLSKADYEKHKVYACEVTHQGLSSPVTKSFNRGEC | 101 | 88.8 |  |  | 
6 | GpH7-A5/GpH7-B3 variant I332_14T/GpL16-k0 (antibody, human IgG1, kappa, Heterodimerized IgG1, mutation in the GpH7-B3 chain only; also called He Ab) heavy 1: not shown heavy 2: not shown light: DIVMTQSPLSLPVTPGEPASISCQASESLVHSNRNTYLHWYLQKPGQSPQLLIYKVSNRFSGVPDRFSGSGSGTDFTLKISRVEAEDVGVYYCSQNTHVPPTFGQGTKVEIERTVAAPSVFIFPPSDEQLKSGTASVVCLLNNFYPREAKVQWKVDNALQSGNSQESVTEQDSKDSTYSLSSTLTLSKADYEKHKVYACEVTHQGLSSPVTKSFNRGEC | 106 | 91.8 |  |  | 

Next, values leading:

Row | He/Con_2b [1] [control = 100] | He/Con_1a [2] [control = 100] | He/Con_2b [3] [control = 100] | He/Con_1a [4] [control = 100] | He_1a/2b (Ia/IIb) [5] | Binder
7 |  |  | 152 | 99.3 | 0.65 | GpH7-A5/GpH7-B3 variant V266_07I/GpL16-k0 (antibody, human IgG1, kappa, Heterodimerized IgG1, mutation in the GpH7-B3 chain only; also called He Ab) heavy 1: not shown heavy 2: not shown light: DIVMTQSPLSLPVTPGEPASISCQASESLVHSNRNTYLHWYLQKPGQSPQLLIYKVSNRFSGVPDRFSGSGSGTDFTLKISRVEAEDVGVYYCSQNTHVPPTFGQGTKVEIERTVAAPSVFIFPPSDEQLKSGTASVVCLLNNFYPREAKVQWKVDNALQSGNSQESVTEQDSKDSTYSLSSTLTLSKADYEKHKVYACEVTHQGLSSPVTKSFNRGEC
8 |  |  | 192 | 100 | 0.52 | GpH7-A5/GpH7-B3 variant S267_07I/GpL16-k0 (antibody, human IgG1, kappa, Heterodimerized IgG1, mutation in the GpH7-B3 chain only; also called He Ab) heavy 1: not shown heavy 2: not shown light: DIVMTQSPLSLPVTPGEPASISCQASESLVHSNRNTYLHWYLQKPGQSPQLLIYKVSNRFSGVPDRFSGSGSGTDFTLKISRVEAEDVGVYYCSQNTHVPPTFGQGTKVEIERTVAAPSVFIFPPSDEQLKSGTASVVCLLNNFYPREAKVQWKVDNALQSGNSQESVTEQDSKDSTYSLSSTLTLSKADYEKHKVYACEVTHQGLSSPVTKSFNRGEC
9 |  |  | 310 | 110 | 0.35 | GpH7-A5/GpH7-B3 variant S267_09D/GpL16-k0 (antibody, human IgG1, kappa, Heterodimerized IgG1, mutation in the GpH7-B3 chain only; also called He Ab) heavy 1: not shown heavy 2: not shown light: DIVMTQSPLSLPVTPGEPASISCQASESLVHSNRNTYLHWYLQKPGQSPQLLIYKVSNRFSGVPDRFSGSGSGTDFTLKISRVEAEDVGVYYCSQNTHVPPTFGQGTKVEIERTVAAPSVFIFPPSDEQLKSGTASVVCLLNNFYPREAKVQWKVDNALQSGNSQESVTEQDSKDSTYSLSSTLTLSKADYEKHKVYACEVTHQGLSSPVTKSFNRGEC
10 |  |  | 379 | 106 | 0.28 | GpH7-A5/GpH7-B3 variant S267_10E/GpL16-k0 (antibody, human IgG1, kappa, Heterodimerized IgG1, mutation in the GpH7-B3 chain only; also called He Ab) heavy 1: not shown heavy 2: not shown light: DIVMTQSPLSLPVTPGEPASISCQASESLVHSNRNTYLHWYLQKPGQSPQLLIYKVSNRFSGVPDRFSGSGSGTDFTLKISRVEAEDVGVYYCSQNTHVPPTFGQGTKVEIERTVAAPSVFIFPPSDEQLKSGTASVVCLLNNFYPREAKVQWKVDNALQSGNSQESVTEQDSKDSTYSLSSTLTLSKADYEKHKVYACEVTHQGLSSPVTKSFNRGEC
11 |  |  | -1.1 | 59.2 | -55.6 | GpH7-A5/GpH7-B3 variant V266_12R/GpL16-k0 (antibody, human IgG1, kappa, Heterodimerized IgG1, mutation in the GpH7-B3 chain only; also called He Ab) heavy 1: not shown heavy 2: not shown light: DIVMTQSPLSLPVTPGEPASISCQASESLVHSNRNTYLHWYLQKPGQSPQLLIYKVSNRFSGVPDRFSGSGSGTDFTLKISRVEAEDVGVYYCSQNTHVPPTFGQGTKVEIERTVAAPSVFIFPPSDEQLKSGTASVVCLLNNFYPREAKVQWKVDNALQSGNSQESVTEQDSKDSTYSLSSTLTLSKADYEKHKVYACEVTHQGLSSPVTKSFNRGEC
12 |  |  | 236 | 98.1 | 0.42 | GpH7-A5/GpH7-B3 variant V266_08L/GpL16-k0 (antibody, human IgG1, kappa, Heterodimerized IgG1, mutation in the GpH7-B3 chain only; also called He Ab) heavy 1: not shown heavy 2: not shown light: DIVMTQSPLSLPVTPGEPASISCQASESLVHSNRNTYLHWYLQKPGQSPQLLIYKVSNRFSGVPDRFSGSGSGTDFTLKISRVEAEDVGVYYCSQNTHVPPTFGQGTKVEIERTVAAPSVFIFPPSDEQLKSGTASVVCLLNNFYPREAKVQWKVDNALQSGNSQESVTEQDSKDSTYSLSSTLTLSKADYEKHKVYACEVTHQGLSSPVTKSFNRGEC
13 |  |  | 218 | 102 | 0.47 | GpH7-A5/GpH7-B3 variant S267_19Q/GpL16-k0 (antibody, human IgG1, kappa, Heterodimerized IgG1, mutation in the GpH7-B3 chain only; also called He Ab) heavy 1: not shown heavy 2: not shown light: DIVMTQSPLSLPVTPGEPASISCQASESLVHSNRNTYLHWYLQKPGQSPQLLIYKVSNRFSGVPDRFSGSGSGTDFTLKISRVEAEDVGVYYCSQNTHVPPTFGQGTKVEIERTVAAPSVFIFPPSDEQLKSGTASVVCLLNNFYPREAKVQWKVDNALQSGNSQESVTEQDSKDSTYSLSSTLTLSKADYEKHKVYACEVTHQGLSSPVTKSFNRGEC
